From the supplement of paper PMC9170038

System: MS2 coat protein
Test: apparent KD of MS2 coat protein; designed switch direction (-1 OFF switch, 1 ON switch): -1; higher = weaker reporter binding
Outline: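 RNA switches sharing common flanks were transcribed by stalled E. coli RNA polymerase on Illumina chips. A doubling series of SNAP-549-labelled MS2 coat protein, from 0.7 or 1.5 nM to 3 µM, was applied in Tris-HCl pH 7.5 buffer with KCl, MgCl2, BSA, DTT, tRNA and Tween-20. Each step lasted 0.8–1.5 h at the bottom of the series and 10–20 min at the top. Normalised cluster fluorescence was curve-fitted, giving apparent KD as the per-design median over clusters.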

[1] = Eterna round: R95, input ligand: FMN 200 uM
[2] = Eterna round: R95, input ligand: microRNA oligo, concentration not stated
[3] = Eterna round: R95, input ligand: none
[4] = input ligand: microRNA oligo, concentration not stated

Sequence	apparent KD of MS2 coat protein (input ligand: FMN 200 uM) [nM]	apparent KD of MS2 coat protein (input ligand: none) [nM]	apparent KD of MS2 coat protein [1] [nM]	apparent KD of MS2 coat protein [2] [nM]	apparent KD of MS2 coat protein [3] [nM]	apparent KD of MS2 coat protein [4] [nM]
ACAAGCUUAAUCAGUAAGAACAUGAGGAUCACCCAUGUAAAAGGGAAGACAAUUGGGUUAUUUAAAGCUCGUCUUAU [JR_STOV1_Sub015] (Eterna round: R97, puzzle: Sensor, turn-off variant 1)	62.7	111	–	–	–	–
CCCUCAAGCGAGGAUAUAAAUGCGCAUUCGCGGUUAGAAGGCGCUACAUGAGGAUCACCCAUGUAAUUGUAUGG [jl-ex6-4.53 ViennaUCT mod] (Eterna round: R97, puzzle: Exclusion 6)	98.4	73.4	–	–	–	–
GCUGGACGAGGAUAUAUAUGACGUGCUUCGGCACGAAGAUCACAUGAGGAUCACCCAUGUAGAAGGUGUCCAGC [E2/8-B2] (Eterna round: R97, puzzle: Exclusion 2)	278	54.1	–	–	–	–
AAAAUGUCAGGAUAUGUGAAAGAAAAGAAAAGAAAAGAAAAACAGAAGGGACAUGAGGAUCACCCAUGUAAGAA [Exclusion 4 #3] (puzzle: Exclusion 4)	–	–	21.6	25.2	27.1	–
GUAAAUCAUGUAGGAUAUGCAUAGCAAAGCUAUGCAGAAGGACAUGAGGAUCACCCAUGUCAUUCCGUCUGGAGACAGACGGAA [Mat - Exclusion NG 1 - Mod of JL - D59] (Eterna round: R96, puzzle: Exclusion NG 1)	121	32.2	–	–	–	22
CAGUACUGAGGAUAUACAUGAGGAUCACCCAUGUUCCAAGGCUAGGAUACUAGCAAAGGUAGAAGGCAGUACUG [Mat - Exclusion 3 - Eli Mod - D26] (Eterna round: R97, puzzle: Exclusion 3)	150	17.6	–	–	–	–
AGGUGCCUCUGGAAACAUGAGGAUCACCCAUGUUGAGUUAGCGAGGAUAUCGGUAACCAUUGUUAUGAGAAGGCGCAAACCAGA [Ex NG3 #38] (Eterna round: R96, puzzle: Exclusion NG 3)	60.7	27.6	–	–	–	19.6
UUUUUACAUGAGGAUCACCCAUGUGAGGAUAUGGAGCGCGACCGCGCGGUCGCGUACACCAGAAGGCGCAUGAU [1st #77] (Eterna round: R97, puzzle: Exclusion 1)	243	51.7	–	–	–	–
AGAAAGUCAGGAUAUCGAAGGUAGUGGAGAGGAGUGUGGUACGAGAAGGGACAUGAGGAUCACCCAUGUAGGAG [JR_Exclusion4)Sub007] (puzzle: Exclusion 4)	–	–	–	31.1	–	–
CUAGUCCGAGGAUAUAUUAUGUGAUACAUGAGGAUCACCCAUGUUAUAUGAUGGAUAUUAAUAGAAGGCGGACUAG [Mat - Exclusion 5 - JL mod - D74] (puzzle: Exclusion 5)	–	–	58	68.3	88	–
UAGGCACCUGCAGGAUAUUAGAGGCGCUUUCUGUAAGAAGGGCAGGUUCACAUGAGGAUCACCCAUGUAAAGAACAGCAUGGCA [Eternabot solution 24] (Eterna round: R96, puzzle: Exclusion NG 1)	23.1	28.9	–	–	–	17.4
GUUAAACAUGAGGAUCACCCAUGUAAGGAUAUGCUGCGGUCGCGAUGAAGUGACUGCAGCAGAAGGUACAAUUG [Mat - Mod of JL D52] (puzzle: Exclusion 1)	–	–	–	88.8	–	–
AAAAAGGCAGGAUAUACGAGUCAAAGAAAAGACAAAAGGAGACAUGAGGAUCACCCAUGUAGAAGGGCCAAAAA [Fiskers exclusion D2 62% 5] (Eterna round: R96, puzzle: Exclusion 2)	85.2	25.3	–	–	–	20.6
GGAAGGAGUGUAAGGAUAUCCUCCUCGAAAGAGGAGGAGAAGGUACAUGAGGAUCACCCAUGUAGAGGAGGAGG [AK-MS2ROC-r4-Bmoexclusion4-10.1] (Eterna round: R97, puzzle: Brourd's mod of Exclusion 4)	73.6	35.7	–	–	–	–
UGUUGUUACGCAGGAUAUGAGGAUCACCCAUAUUAGGAUAUCGAAAGAGAAUUUCUGAGGAUCACCCAGAAGGGCGGGUUAACA [pwkr exNG2 2xF5 2xFMN.36] (Eterna round: R96, puzzle: Exclusion NG 2)	118	47.3	–	–	–	38.5
GGUCAGCUAGGAUAUACAUGAGGAUCACCCAUGUACUGACCCAUGCGGUAGUCCGCAUGUAGAAGGAGCAAAAU [Cebiin] (Eterna round: R97, puzzle: Exclusion 3)	11.3	18.2	–	–	–	–
AAGAAACAUGAGGAUCACCCAUGUGAGGAUAUGAGUAAGAAAAGAAAAGAAAGAAGACUCAGAAGGCACAAAGG [salish99-ex1_r3_074] (puzzle: Exclusion 1)	–	–	135	110	86.8	–
AUGGUCCGAGGAUAUAUUAUGUGAUACAUGAGGAUCACCCAUGUUAUAUGAUGGAUGUUAGUAGAAGGCGGACUAC [salish99_ex5_r3_002] (puzzle: Exclusion 5)	–	–	89.3	82.2	103	–
UGUUGGCGAGGAUAUACAUGAGGAUCACCCAUGUGAGAGAAAAAAGUGAGGAAGAAAAGUAGAAGGCGCUGACG [salish99_ex3_r3_043] (puzzle: Exclusion 3)	–	–	209	40	45.4	–
GAAAAGGUAGAGGAUAUUUCAGGUCAAAGCUGCAAAGAAGGCUGCACAUGAGGAUCACCCAUGUGGUCUUAAAA [Mod of Quesina 7 - Jieux - Exclusion 6] (Eterna round: R97, puzzle: Exclusion 6)	90.4	25.7	–	–	–	–
CGUAAGGUAGGAUAUACAUGAGGAUCACCCAUGUCCCACCCGUUACCUAUGACCAUAUGUAGAAGGACCAAUGC [Exy#10] (Eterna round: R97, puzzle: Exclusion 3)	20.7	22.7	–	–	–	–
CCUCCACAUGAGGAUCACCCAUGUCAGGAUAUCGUGUGCGCGUUUUCGGUCUUUCGCGCGAGAAGGGACGACUG (puzzle: Exclusion 1)	–	–	–	24.7	–	–
CUGGUCCGAGGAUAUAUGAUGUGAAACAUGAGGAUCACCCAUGUAAUAUUAUGGAUGUAAAUAGAAGGCGGACUAG [JL-ex5-3.08] (puzzle: Exclusion 5)	–	–	37.8	33.9	74.2	–
AGCCAAGCAGGAUAUGCCCGGGAUAACAUGAGGAUCACCCAUGUGACCGAUUGAUGUCCUGCAGAAGGGCUUGGGA [Erxesoan] (puzzle: Exclusion 5)	–	–	–	15.8	–	–
AAUAAUAAUGUCAGGAUAUCUAGAGCUGCGGCUCUAGAGAAGGGACAUGAGGAUCACCCAUGUCACUCAAUAAU [BmEx4/3-C5] (Eterna round: R97, puzzle: Brourd's mod of Exclusion 4)	22	15.1	–	–	–	–
AGAUCUAGGACAGGAUAUAUGGAUGUCUUCAUCGAAGAUGAAGACAUCACAUGAGGAUCACCCAUGUAGAAGGGUCCUAGAUCA [Omei Exc(NG) 2Av2] (Eterna round: R96, puzzle: Exclusion NG 2)	11.9	15.6	–	–	–	13.5
